Laboratory results as given in patent US20240417433A1 (NANTONG YICHEN BIOPHARMA, published 2024).
Where “and” joins values, the source holds several entries; their conditions need not be identical. Equal values may be shown once.

Legend:
Recombinant protein α4β7 = molecular target: T1, Recombinant protein α4β7 (UniProt P13612 34-977; P26010 20-723); test: ELISA on coated recombinant α4β7 (100 ng per well)
T1 construct: Coated on the ELISA plate at 100 ng per well; also called integrin β7

[1] = molecular target: integrin β7 on human β7-high T cells (human, UniProt P26010 20-798; P13612 34-1032); test: cell-based or functional assay
[2] = molecular target: Kv1.3 potassium ion channel (UniProt P22001 1-575); test: cell-based or functional assay
Chain of Kv1.3 potassium ion channel (P22001 whole entry): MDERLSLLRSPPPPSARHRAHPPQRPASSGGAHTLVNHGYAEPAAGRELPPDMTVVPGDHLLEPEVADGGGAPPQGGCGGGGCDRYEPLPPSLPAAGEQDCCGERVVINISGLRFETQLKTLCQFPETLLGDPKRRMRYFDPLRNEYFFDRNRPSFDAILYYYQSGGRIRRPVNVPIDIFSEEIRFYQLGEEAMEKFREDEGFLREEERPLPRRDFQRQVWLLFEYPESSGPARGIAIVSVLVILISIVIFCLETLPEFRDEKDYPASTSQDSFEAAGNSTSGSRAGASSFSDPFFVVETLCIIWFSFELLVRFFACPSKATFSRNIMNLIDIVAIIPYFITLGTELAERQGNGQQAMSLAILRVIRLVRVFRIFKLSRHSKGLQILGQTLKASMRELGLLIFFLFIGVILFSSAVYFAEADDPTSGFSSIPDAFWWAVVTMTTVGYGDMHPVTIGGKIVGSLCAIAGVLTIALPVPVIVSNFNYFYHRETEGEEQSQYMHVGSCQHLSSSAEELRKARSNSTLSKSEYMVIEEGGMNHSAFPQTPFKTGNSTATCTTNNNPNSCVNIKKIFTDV

T1 sequence (P13612 34-977, chain 1 of 2): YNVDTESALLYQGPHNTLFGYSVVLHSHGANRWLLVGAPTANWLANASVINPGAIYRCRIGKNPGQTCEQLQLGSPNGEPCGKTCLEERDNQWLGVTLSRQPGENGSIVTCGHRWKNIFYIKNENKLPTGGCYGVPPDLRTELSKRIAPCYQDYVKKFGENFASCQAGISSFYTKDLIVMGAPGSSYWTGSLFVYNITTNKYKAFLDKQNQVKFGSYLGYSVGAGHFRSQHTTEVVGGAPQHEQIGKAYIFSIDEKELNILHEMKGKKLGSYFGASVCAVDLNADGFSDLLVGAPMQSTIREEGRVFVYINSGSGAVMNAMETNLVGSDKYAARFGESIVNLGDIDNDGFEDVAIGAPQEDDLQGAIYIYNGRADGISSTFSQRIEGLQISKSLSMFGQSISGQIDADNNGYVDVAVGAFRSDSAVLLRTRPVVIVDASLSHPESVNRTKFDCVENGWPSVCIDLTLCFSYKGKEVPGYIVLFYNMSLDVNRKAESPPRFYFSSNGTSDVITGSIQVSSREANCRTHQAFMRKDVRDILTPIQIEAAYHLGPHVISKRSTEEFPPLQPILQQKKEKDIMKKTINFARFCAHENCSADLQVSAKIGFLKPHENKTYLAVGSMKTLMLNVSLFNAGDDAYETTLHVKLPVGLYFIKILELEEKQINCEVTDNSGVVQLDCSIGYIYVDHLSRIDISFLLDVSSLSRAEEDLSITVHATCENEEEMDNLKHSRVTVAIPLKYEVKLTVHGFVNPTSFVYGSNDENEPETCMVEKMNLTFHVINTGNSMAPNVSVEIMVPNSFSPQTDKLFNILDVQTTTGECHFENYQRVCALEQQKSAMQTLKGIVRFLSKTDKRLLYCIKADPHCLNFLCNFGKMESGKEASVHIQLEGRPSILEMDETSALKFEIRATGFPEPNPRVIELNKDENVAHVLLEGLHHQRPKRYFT
T1 sequence (P26010 20-723, chain 2 of 2): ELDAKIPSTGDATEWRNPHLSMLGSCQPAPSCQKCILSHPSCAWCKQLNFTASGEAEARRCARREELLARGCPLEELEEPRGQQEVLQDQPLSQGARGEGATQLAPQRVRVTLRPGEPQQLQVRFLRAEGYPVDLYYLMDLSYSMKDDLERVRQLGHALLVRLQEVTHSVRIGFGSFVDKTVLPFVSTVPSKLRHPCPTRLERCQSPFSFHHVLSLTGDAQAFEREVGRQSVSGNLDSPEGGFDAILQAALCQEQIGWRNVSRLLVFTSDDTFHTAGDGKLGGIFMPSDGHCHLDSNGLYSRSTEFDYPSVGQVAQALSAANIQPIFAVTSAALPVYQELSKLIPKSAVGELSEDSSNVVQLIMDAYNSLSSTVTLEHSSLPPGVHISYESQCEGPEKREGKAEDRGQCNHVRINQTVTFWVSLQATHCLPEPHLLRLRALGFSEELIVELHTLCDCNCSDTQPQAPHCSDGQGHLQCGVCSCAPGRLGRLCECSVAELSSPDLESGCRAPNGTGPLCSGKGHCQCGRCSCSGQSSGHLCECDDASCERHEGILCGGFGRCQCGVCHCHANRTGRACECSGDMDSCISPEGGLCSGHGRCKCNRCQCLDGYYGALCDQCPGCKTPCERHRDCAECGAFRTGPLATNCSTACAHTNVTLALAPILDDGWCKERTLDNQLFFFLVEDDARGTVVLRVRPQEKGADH

| Binder | Kd (Recombinant protein α4β7) | IC50, cell adhesion assay (CellTiter-Glo) [1] | IC50, Flipr potassium current fluorescence detection [2] | binding result (Recombinant protein α4β7) |
| --- | --- | --- | --- | --- |
| ATF-L2 (bispecific antibody, The summary says the graft lies between 56S and 60S of light chain FR3; also called ATF-L2 (with LCDR2-grafted Vm24)) heavy: not shown light: DIQMTQSPSSLSASVGDRVTITCRASESVDDLLHWYQQKPGKAPKLLIKYASQSISGGSGAKLAALKAKLAALKGGGGSAAAISCVGSPECPPKCRAQGCKNGKCMNRKCKCYYCGGGGSELAALEAELAALEAGGSGSRFSGSGSGTDFTLTISSLQPEDFATYYCQQGNSLPNTFGQGTKVEIKRTVAAPSVFIFPPSDEQLKSGTASVVCLLNNFYPREAKVQWKVDNALQSGNSQESVTEQDSKDSTYSLSSTLTLSKADYEKHKVYACEVTHQGLSSPVTKSFNRGEC | 0.0359 nM |  |  |  |
| Etrolizumab (antibody, V domains shown) VH: EVQLVESGGGLVQPGGSLRLSCAASGFFITNNYWGWVRQAPGKGLEWVGYISYSGSTSYNPSLKSRFTISRDTSKNTFYLQMNSLRAEDTAVYYCARTGSSGYFDFWGQGTLVTVSS VL: DIQMTQSPSSLSASVGDRVTITCRASESVDDLLHWYQQKPGKAPKLLIKYASQSISGVPSRFSGSGSGTDFTLTISSLQPEDFATYYCQQGNSLPNTFGQGTKVEIKR |  | 0.06 µg/ml and 0.42 nM |  |  |
| ATF-L1 (bispecific antibody) heavy: not shown light: DIQMTQSPSSLSASVGDRVTITCRASESGGSGAKLAALKAKLAALKGGGGSAAAISCVGSPECPPKCRAQGCKNGKCMNRKCKCYYCGGGGSELAALEAELAALEAGGSGLLHWYQQKPGKAPKLLIKYASQSISGVPSRFSGSGSGTDFTLTISSLQPEDFATYYCQQGNSLPNTFGQGTKVEIKRTVAAPSVFIFPPSDEQLKSGTASVVCLLNNFYPREAKVQWKVDNALQSGNSQESVTEQDSKDSTYSLSSTLTLSKADYEKHKVYACEVTHQGLSSPVTKSFNRGEC |  | 0.173 µg/ml and 1.09 nM | 0.7 nM |  |
| ATF-L3 (bispecific antibody, Vm24 with linkers grafted into LCDR3 of etrolizumab; also called ATF-L3 (with LCDR3-grafted Vm24)) heavy: not shown light: DIQMTQSPSSLSASVGDRVTITCRASESVDDLLHWYQQKPGKAPKLLIKYASQSISGVPSRFSGSGSGTDFTLTISSLQPEDFATYYCQQGGGSGAKLAALKAKLAALKGGGGSAAAISCVGSPECPPKCRAQGCKNGKCMNRKCKCYYCGGGGSELAALEAELAALEAGGSGNTFGQGTKVEIKRTVAAPSVFIFPPSDEQLKSGTASVVCLLNNFYPREAKVQWKVDNALQSGNSQESVTEQDSKDSTYSLSSTLTLSKADYEKHKVYACEVTHQGLSSPVTKSFNRGEC | 0.0408 nM |  |  |  |
| ATF-H2 (bispecific antibody, The summary says the graft lies between 60N and 65S of heavy chain FR3; also called ATF-H2 (with HCDR2-grafted Vm24)) heavy: not shown light: DIQMTQSPSSLSASVGDRVTITCRASESVDDLLHWYQQKPGKAPKLLIKYASQSISGVPSRFSGSGSGTDFTLTISSLQPEDFATYYCQQGNSLPNTFGQGTKVEIKRTVAAPSVFIFPPSDEQLKSGTASVVCLLNNFYPREAKVQWKVDNALQSGNSQESVTEQDSKDSTYSLSSTLTLSKADYEKHKVYACEVTHQGLSSPVTKSFNRGEC | 0.0192 nM | 0.072 µg/ml and 0.45 nM | 0.53 nM |  |
| ATF-H3 (bispecific antibody, Vm24 with linkers grafted into HCDR3 of etrolizumab; also called ATF-H3 (with HCDR3-grafted Vm24)) heavy: not shown light: DIQMTQSPSSLSASVGDRVTITCRASESVDDLLHWYQQKPGKAPKLLIKYASQSISGVPSRFSGSGSGTDFTLTISSLQPEDFATYYCQQGNSLPNTFGQGTKVEIKRTVAAPSVFIFPPSDEQLKSGTASVVCLLNNFYPREAKVQWKVDNALQSGNSQESVTEQDSKDSTYSLSSTLTLSKADYEKHKVYACEVTHQGLSSPVTKSFNRGEC | 13.9 nM |  |  |  |
| ATF-H1 (bispecific antibody, Vm24 with linkers grafted into HCDR1 of etrolizumab; also called ATF-H1 (with HCDR1-grafted Vm24)) heavy: not shown light: DIQMTQSPSSLSASVGDRVTITCRASESVDDLLHWYQQKPGKAPKLLIKYASQSISGVPSRFSGSGSGTDFTLTISSLQPEDFATYYCQQGNSLPNTFGQGTKVEIKRTVAAPSVFIFPPSDEQLKSGTASVVCLLNNFYPREAKVQWKVDNALQSGNSQESVTEQDSKDSTYSLSSTLTLSKADYEKHKVYACEVTHQGLSSPVTKSFNRGEC |  |  | 0.72 nM | no binding |
